Data as given in the supplement of paper PMC6757056.
± gives the standard deviation of the averaged measurements.

B1: library; a variant is named by its letters at N, in order (parent)
chain: GCUGUCACCGAGAAACUGUGAAGUAUAUCUUAAACCUGGGCACUUAAAAGAUAUAUGGAGUUAGUAGUGCAACCUGCUCGGUCUGAUGAGUCCNNNNNNGGACGAAACAGC

Tests used:
cyclic di-GMP [1] = variants of: B1; assay: normalized RNA/DNA level without ligand (relative to sTRSVctl = 100) (log10 (% of sTRSVctl)); HEK293T; ligand: cyclic di-GMP (c-di-GMP-II aptamer); higher = less ribozyme self-cleavage, higher mRNA level; settings: reporter: mCherry (pCS4076), ligand present: no
How it was run: (§1)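 Ribozyme switch library plasmids linked to reporters were introduced into HEK293T cells at 4 µg per 6-well well, with ligand, if any, added 1 h before. Total RNA was extracted with EDTA 72 h later, reverse-transcribed, amplified, barcoded and sequenced. RNA level was computed from RNA over DNA reads relative to a spiked-in non-cleaving sequence or the top sequences, then scaled and log-transformed. The top set was 25 sequences, values were ×100 and log10, and the cutoff was ≥100 DNA reads.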

cyclic di-GMP [2] = variants of: B1; assay: normalized RNA/DNA level with ligand (relative to sTRSVctl = 100) (log10 (% of sTRSVctl)); HEK293T; ligand: cyclic di-GMP (c-di-GMP-II aptamer); ligand concentration (+) RNA-Seq: 1 mM; higher = less ribozyme self-cleavage, higher mRNA level; settings: reporter: mCherry (pCS4076), ligand present: yes
How it was run: as §1

| Variant | normalized RNA/DNA level without ligand (log10) (cyclic di-GMP [1]) | normalized RNA/DNA level with ligand (log10) (cyclic di-GMP [2]) |
| --- | --- | --- |
| CCCGUG | 1.62 ± 0.024 | 1.8 ± 0.09 |
| UCGUGG | 1.738 ± 0.004 | 1.89 ± 0.11 |
| AGUUAC | 1.7078 ± 0.0015 | 1.85 ± 0.15 |
| AGAUUG | 1.58 ± 0.049 | 1.77 ± 0.081 |
| UUCCCC | 1.84 ± 0.053 | 1.94 ± 0.14 |
| UGACGA | 1.595 ± 0.015 | 1.78 ± 0.091 |
| GACACA | 1.63 ± 0.018 | 1.77 ± 0.07 |
| GACAGC | 1.74 ± 0.087 | 1.87 ± 0.14 |
| CAGCAG | 1.79 ± 0.028 | 1.85 ± 0.12 |
| GUUUGU | 1.69 ± 0.022 | 1.84 ± 0.067 |
| GAAGGU | 1.58 ± 0.08 | 1.77 ± 0.052 |
| CGGUAG | 1.731 ± 0.0046 | 1.84 ± 0.038 |
| CGCAGA | 1.45 ± 0.08 | 1.68 ± 0.078 |
| CGCCCU | 1.777 ± 0.0073 | 1.87 ± 0.077 |
| UUCUCU | 1.8 ± 0.039 | 1.91 ± 0.11 |
| AAAGAG | 1.44 ± 0.097 | 1.63 ± 0.1 |
| UCUACA | 1.71 ± 0.025 | 1.86 ± 0.16 |
| UGUCGU | 1.648 ± 0.0058 | 1.84 ± 0.12 |
| GGUCCG | 1.9 ± 0.057 | 1.96 ± 0.13 |
| CCGAUU | 1.54 ± 0.052 | 1.73 ± 0.12 |
| AGAGUG | 1.72 ± 0.029 | 1.8 ± 0.09 |
| UUGGUG | 1.6 ± 0.1 | 1.78 ± 0.11 |
| GACGUA | 1.665 ± 0.013 | 1.8 ± 0.085 |
| GCAUAU | 1.528 ± 0.014 | 1.72 ± 0.06 |

| Variant | normalized RNA/DNA level without ligand (log10) (cyclic di-GMP [1]) | normalized RNA/DNA level with ligand (log10) (cyclic di-GMP [2]) |
| --- | --- | --- |
| CAGGAG | 1.64 ± 0.091 | 1.79 ± 0.098 |
| CUAAGU | 1.75 ± 0.063 | 1.84 ± 0.099 |
| GCCAUG | 1.59 ± 0.051 | 1.79 ± 0.066 |
| CGGCGA | 1.49 ± 0.068 | 1.67 ± 0.11 |
| GUGCGG | 1.86 ± 0.043 | 1.92 ± 0.08 |
| GUACCG | 1.77 ± 0.037 | 1.84 ± 0.069 |
| CCUGUU | 1.67 ± 0.019 | 1.86 ± 0.084 |
| UUCCCG | 1.85 ± 0.1 | 1.94 ± 0.13 |
| UCCUGA | 1.69 ± 0.048 | 1.85 ± 0.1 |
| CGUGUC | 1.67 ± 0.055 | 1.82 ± 0.038 |
| UUGACU | 1.75 ± 0.025 | 1.84 ± 0.11 |
| GGUUAU | 1.64 ± 0.049 | 1.8 ± 0.2 |
| AGGCCU | 1.768 ± 0.013 | 1.89 ± 0.099 |
| CUGUGU | 1.75 ± 0.027 | 1.86 ± 0.11 |
| UAUAAG | 1.66 ± 0.03 | 1.82 ± 0.14 |
| GCAGUG | 1.736 ± 0.0028 | 1.78 ± 0.11 |
| GAGAUG | 1.748 ± 0.0058 | 1.83 ± 0.071 |
| UCCUAC | 1.75 ± 0.04 | 1.87 ± 0.14 |
| AGAGCA | 1.806 ± 0.017 | 1.87 ± 0.098 |
| CUAUGA | 1.6 ± 0.059 | 1.76 ± 0.058 |
| GAUAGC | 1.64 ± 0.019 | 1.76 ± 0.14 |
| ACCGUU | 1.52 ± 0.028 | 1.72 ± 0.1 |
| UCACAG | 1.667 ± 0.0019 | 1.83 ± 0.083 |
| CCCACG | 1.75 ± 0.018 | 1.87 ± 0.044 |

| Variant | normalized RNA/DNA level without ligand (log10) (cyclic di-GMP [1]) | normalized RNA/DNA level with ligand (log10) (cyclic di-GMP [2]) |
| --- | --- | --- |
| UCUGUU | 1.636 ± 0.0046 | 1.82 ± 0.12 |
| UGUAAU | 1.679 ± 0.01 | 1.84 ± 0.14 |
| AUAAGA | 1.4 ± 0.11 | 1.62 ± 0.12 |
| UGGCCU | 1.84 ± 0.12 | 1.97 ± 0.15 |
| UGUUUA | 1.744 ± 0.0073 | 1.89 ± 0.072 |
| AGAGAU | 1.661 ± 0.0087 | 1.79 ± 0.11 |
| AGCUGA | 1.58 ± 0.16 | 1.72 ± 0.067 |
| GGACCA | 1.72 ± 0.021 | 1.81 ± 0.021 |
| UAGUGU | 1.62 ± 0.034 | 1.81 ± 0.13 |
| ACAUGC | 1.59 ± 0.049 | 1.77 ± 0.053 |
| UCAUCC | 1.78 ± 0.027 | 1.9 ± 0.082 |
| CCAAAA | 1.35 ± 0.091 | 1.62 ± 0.079 |
| UCCGUC | 1.75 ± 0.018 | 1.9 ± 0.14 |
| GUGAUA | 1.5 ± 0.034 | 1.7 ± 0.097 |
| UUCCAG | 1.76 ± 0.022 | 1.89 ± 0.093 |
| CUAGAU | 1.65 ± 0.017 | 1.79 ± 0.069 |
| GAGGGG | 1.77 ± 0.056 | 1.86 ± 0.1 |
| CGAAUG | 1.66 ± 0.019 | 1.85 ± 0.047 |
| UGUCGA | 1.76 ± 0.033 | 1.81 ± 0.14 |
| AUCCAA | 1.56 ± 0.053 | 1.73 ± 0.12 |
| UGCCAC | 1.77 ± 0.056 | 1.88 ± 0.15 |
| CAAGUC | 1.7 ± 0.055 | 1.78 ± 0.14 |
| AGCCAG | 1.68 ± 0.077 | 1.79 ± 0.058 |
| GUGCGC | 1.74 ± 0.057 | 1.88 ± 0.056 |

| Variant | normalized RNA/DNA level without ligand (log10) (cyclic di-GMP [1]) | normalized RNA/DNA level with ligand (log10) (cyclic di-GMP [2]) |
| --- | --- | --- |
| UGUUCU | 1.75 ± 0.051 | 1.88 ± 0.13 |
| AUAUUG | 1.6 ± 0.052 | 1.78 ± 0.15 |
| AUCGUU | 1.6 ± 0.035 | 1.78 ± 0.048 |
| ACUAGU | 1.674 ± 0.011 | 1.8 ± 0.065 |
| UCGCCU | 1.76 ± 0.029 | 1.92 ± 0.12 |
| UUUAUG | 1.707 ± 0.0064 | 1.84 ± 0.11 |
| GCCACG | 1.68 ± 0.051 | 1.81 ± 0.12 |
| GGCGAC | 1.76 ± 0.093 | 1.88 ± 0.16 |
| GAGAAU | 1.663 ± 0.011 | 1.76 ± 0.098 |
| UCCAGU | 1.63 ± 0.021 | 1.84 ± 0.11 |
| CUCAUG | 1.68 ± 0.031 | 1.82 ± 0.14 |
| AUUAGG | 1.56 ± 0.065 | 1.72 ± 0.17 |
| AGGUCC | 1.86 ± 0.022 | 1.94 ± 0.08 |
| AGGUGU | 1.66 ± 0.041 | 1.77 ± 0.06 |
| AUGGGC | 1.626 ± 0.015 | 1.79 ± 0.16 |
| CCUUCC | 1.779 ± 0.0029 | 1.87 ± 0.12 |
| UCAGCU | 1.671 ± 0.0017 | 1.82 ± 0.15 |
| ACCUGU | 1.72 ± 0.063 | 1.84 ± 0.13 |
| UAUGGG | 1.57 ± 0.078 | 1.73 ± 0.1 |
| UGGGGG | 1.79 ± 0.055 | 1.87 ± 0.09 |
| CGUCGG | 1.7 ± 0.039 | 1.81 ± 0.13 |
| GUCAUG | 1.61 ± 0.037 | 1.75 ± 0.11 |
| GCGGCA | 1.82 ± 0.032 | 1.9 ± 0.12 |
| GAUCUU | 1.673 ± 0.0037 | 1.8 ± 0.091 |

| Variant | normalized RNA/DNA level without ligand (log10) (cyclic di-GMP [1]) | normalized RNA/DNA level with ligand (log10) (cyclic di-GMP [2]) |
| --- | --- | --- |
| AAUUGA | 1.49 ± 0.096 | 1.72 ± 0.083 |
| CUUUGU | 1.78 ± 0.029 | 1.87 ± 0.049 |
| GUUGGG | 1.6 ± 0.1 | 1.76 ± 0.065 |
| UUUUUU | 1.77 ± 0.056 | 1.88 ± 0.097 |
| GGCUCC | 1.88 ± 0.022 | 1.96 ± 0.11 |
| AUAGAG | 1.46 ± 0.13 | 1.73 ± 0.082 |
| UUUGAC | 1.71 ± 0.03 | 1.87 ± 0.11 |
| CUCCAA | 1.46 ± 0.096 | 1.72 ± 0.083 |
| GCGAGC | 1.55 ± 0.066 | 1.71 ± 0.04 |
| CUGGCC | 1.8041 ± 0.00089 | 1.87 ± 0.096 |
| AUGAUA | 1.53 ± 0.069 | 1.71 ± 0.14 |
| AUGCCC | 1.79 ± 0.051 | 1.82 ± 0.14 |
| CAUCUG | 1.76 ± 0.073 | 1.88 ± 0.13 |
| CUCCAU | 1.58 ± 0.035 | 1.82 ± 0.057 |
| CGUCUG | 1.727 ± 0.015 | 1.83 ± 0.064 |
| CAACUC | 1.685 ± 0.011 | 1.82 ± 0.086 |
| ACACAA | 1.41 ± 0.056 | 1.66 ± 0.16 |
| UAGGGG | 1.563 ± 0.0094 | 1.72 ± 0.079 |
| UCAAUC | 1.63 ± 0.01 | 1.8 ± 0.12 |
| CACUUU | 1.51 ± 0.057 | 1.7 ± 0.17 |
